Substrate: C[C@H](O)C(=O)O
Assay: cells, lysate or membranes
Settings: pH 7.3, 37 °C, 2 min uptake, 1-100 µM L-lactate, labelled compound (14C tracer spike)

B1: Slc16a13 (SLC16A13/MCT13) (Mus musculus) (protein)
chain: MVRRAEPPDGGWGWMVVLSAFFQSALVFGVLRSFGVFFVEFVAAFEEQAARVSWIASIGIAVQQFGSPIGSALSTKLGPRPVVMTGGILAALGMLLASFATSLTHLYLSIGLLSGSGWALTFTPTMACLSRYFSQRRSLAMGLALTGVGISSFAFAPLFQWLINNYAWRGALLLVSALSLHLMACGALLRPLSLTEDAAVGGPGAQITSLLRHGPFLRYTAALTLINTGFFIPYVHLVAHLQDLGWDPLPAAFLLSVAAVSDLVGRVASGWLGDAVPGPVARLLMLWTTLTGVSLALFPVAQASSTLVVLAVAYGFTSGALTPVAFSVLPELVGTGRIYCGMGLVQMIESIGGLLGAPLSGYLRDVTGNYTASFVVAGAFLLAGSGVLLTLPHFFSCISVSTSRPQDLVIEASDTKIPLPKEEGLGEN
- Km: 0.47 ± 0.35 µM
